Assay results published in patent US20200172626A1 (EUTILEX, published 2020).

How the values were obtained:
[1] = target: T1, human 4-1BB expressed on cells (human, UniProt Q07011 24-255); test: FACS on anti-CD3-activated human CD8+ T cells, antibody at 25 ng/ml
T1 construct: also called 4-1BB expressed by Jurkat 8-1 cells
Procedure: CD8⁺ T cells were isolated from human PBMCs and activated with 1 μg/ml anti-CD3 antibody for 2 day. The ability of exemplary humanized anti-human 4-1BB antibodies (94K, 94 KV, 94KVT and EU101) described in Example 1 to detect a 4-1BB on the surface of activated […] T cells was assessed relative to an exemplary commercially available anti-4-1BB antibody (4-1BB-PE). Also shown is detection with a BBK-4 a murine anti-human 4-1BB antibody and a 94G1 reference humanized antibody. Treatment with 4-1BB antibodies was at a concentration of 25 ng/ml.
Exemplary antibodies were detected with an anti-mIgG-Dylight488 or anti-hIgG-Dylight488 as appropriate, and analyzed by FACS.

[2] = target: T1, human 4-1BB expressed on cells; test: cell-based or functional assay
[3] = target: T2, human 4-1BB antigen (H4-1BB) (human, UniProt Q07011 24-186, limits assumed); test: ELISA of Fab in E. coli supernatant, binding divided by expression level; data not shown
Procedure: ELISA was performed the following day on a supernatant obtained by centrifugation at 12,000 rpm for 10 minutes at 4° C.
A Fab antibody prepared by substituting the constant heavy chain of pCOM-Fab94G1-L with the heavy chain of the backbone 94G1 on the improved 94G1 light chain was called 94/w. Thus, a 94/w variant includes an improved 94G1 light chain in which the 6th amino acid of LCDR3 is substituted with tryptophan (W) ([…]—SEQ ID NO: 4) and a 94G1 heavy chain. IPTG-induced expression in E. coli and ELISA of a 94/w Fab was used to determine binding affinity as described above. Using this method, it was determined that a 94/w Fab antibody has a binding activity 3.5 times higher than that of 94G1 (Fab antibody) (data not shown).

[4] = target: T3, GST-4-1BB ECD fragment R1.2 fusion polypeptide (human); test: western blot on E. coli whole cell extracts (FIG. 2B)
T3 construct: not shown: GST carrier at the N end (pGEX-6T, 27 kDa) and the vector-derived junction residues
T3 chain: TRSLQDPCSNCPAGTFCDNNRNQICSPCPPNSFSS
Procedure: (§1) FIG. 2A depicts an SDS-PAGE gel of whole cell extracts from cells expressing 4-1BB ECD fusion constructs. Fusion constructs as described above in FIG. 2A were expressed in E. coli BL21 cells induced with 1 mM IPTG, and whole cell extracts resolved by 12% SDS-PAGE. As shown, all fusion constructs (ECD, R1, R1.1, R1.2, R1.3, R1.4, R1.5, and R1.6) have robust protein expression. FIG. 2B depicts a western blot showing binding of an exemplary humanized anti-4-1BB antibody to full length 4-1BB ECD fusion polypeptide, and R1.1, R1.2, R1.3, and R1.6 fusion polypeptides, but not to the R1.4 or R1.5 fusion polypeptides. Immunoblots were performed with an exemplary anti-human 4-1BB antibody. Molecular size markers are indicated in kDa on the left.
(§2) SDS-PAGE was transferred to a nitrocellulose membrane and immunoblotting was performed using an exemplary anti-human 4-1BB antibody, EU101. […] It was also confirmed that a sequence including amino acids 35 to 50 of the 4-1BB extracellular domain is […] for binding an exemplary humanized antibody described herein (FIG. 2B).

[5] = target: T4, GST-4-1BB ECD fragment R1.6 fusion polypeptide (human, N-terminal GST fusion, not written); test: as above
T4 construct: not shown: GST carrier at the N end (27 kDa, pGEX-6T) and the vector-derived residues at the BamHI/XhoI junctions
T4 chain: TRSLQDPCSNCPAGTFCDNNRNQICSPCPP
Procedure: as §1, §2

[6] = target: T5, GST-4-1BB ECD fragment R1.1 fusion polypeptide (human, UniProt Q07011 21-65); test: as above
T5 construct: not shown: GST carrier at the N end (pGEX-6T, 27 kDa) and the vector-derived junction residues
T5 chain: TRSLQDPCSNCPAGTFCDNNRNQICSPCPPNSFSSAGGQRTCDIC
Procedure: as §1, §2

[7] = target: T6, GST-4-1BB ECD fragment R1.3 fusion polypeptide (human, UniProt Q07011 31-75); test: as above
T6 construct: not shown: GST carrier at the N end (pGEX-6T, 27 kDa) and the vector-derived junction residues
T6 chain: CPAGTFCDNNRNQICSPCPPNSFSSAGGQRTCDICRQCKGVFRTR
Procedure: as §1, §2

[8] = target: T2, human 4-1BB antigen (H4-1BB); test: SPR (Biacore 3000, CM5 chip), antibody captured on immobilized anti-human IgG, human 4-1BB antigen (H4-1BB) flowed over
Excerpt: In vitro binding affinity of exemplary engineered antibody EU101 as described in Example 1, along with that of a reference 94G1 humanized antibody were each determined by Biacore analysis. Anti-human IgG was immobilized on a CM5 chip, and coupled to the Fab antibodies prepared above by flowing over the chip, and ultimately reacted with a human 4-1BB antigen (H4-1BB) to measure the binding activity between the antibody and the antigen (Biacore3000, sensor chip CM5). Ka (1/Ms) and Kd (1/s) values represent how fast an antibody associates with and dissociates from an antigen, respectively. A dissociation constant (KD) is obtain by dividing Kd by Ka (Kd/Ka=[…]).

[9] = target: T7, GST-4-1BB ECD fragment R1.4 fusion polypeptide (human); test: western blot on E. coli whole cell extracts with GST fusion polypeptides
T7 construct: not shown: GST carrier at the N end (pGEX-6T, 27 kDa) and the vector-derived junction residues
T7 chain: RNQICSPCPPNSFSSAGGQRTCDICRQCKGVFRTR
Procedure: as §1, §2

[10] = target: T8, GST-4-1BB ECD fragment R2 fusion polypeptide (human, UniProt Q07011 76-130); test: western blot on GST fusion polypeptides
T8 construct: not shown: GST carrier at the N end (pGEX-6T, 27 kDa) and the vector-derived junction residues
Procedure: Purified protein samples were obtained from transformed bacterial cells by a lysis buffer (e.g., 10 mM Tris-HCl—pH 7.4, 50 mM NaCl, 5 mM EDTA, 30 mM NaF, 0.1 mM Na3VO4, 1% Triton X-100, 0.5% Nonidet P-40, 1 mM PMSF, and protease inhibitor mixture). Approximately 20 μg of each fusion polypeptide sample was diluted in a 4×SDS sample buffer, subjected to electrophoresis on SDS-PAGE gels, and then transferred to nitrocellulose membranes (Millipore, Bedford, Mass.). On the cellulose membranes, anti-human 4-1BB mAb was reacted with anti-mouse IgG horseradish […] (HRP). Binding antibodies were recognized by enhanced chemiluminescence (ECL) (Amersham Pharmacia Biotech, Little Chalfont, UK).
As described above and shown in FIG. 1B, when each of three non-overlapping H4-1BB ECD fragment-GST fusion polypeptides, R1, R2, and R3, were treated with GST-binding, respectively. It was determined that an exemplary humanized anti-4-1BB antibody encompassed by the present disclosure (EU101) binds to an N-terminal fragment construct (R1) fusion construct of approximately 32 kDa (amino acids 1 to 55 of 4-1BB) by western blotting.

T1 sequence (Q07011 24-255 limits assumed): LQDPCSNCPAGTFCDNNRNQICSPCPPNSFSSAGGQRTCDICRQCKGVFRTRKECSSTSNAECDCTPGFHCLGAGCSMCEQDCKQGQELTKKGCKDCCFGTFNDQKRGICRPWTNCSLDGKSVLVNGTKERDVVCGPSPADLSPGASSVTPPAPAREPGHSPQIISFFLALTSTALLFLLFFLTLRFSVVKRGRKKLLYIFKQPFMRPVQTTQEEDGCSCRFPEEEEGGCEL

B1: 94KVT (full length 94KVT/w antibody) (antibody, human IgG1)
heavy: not shown
VL: DIVMTQSPAFLSVTPGEKVTITCRASQTISDYLHWYQQKPDQAPKLLIKYASQSISGIPSRFSGSGSGTDFTFTISSLEAEDAATYYCQDGHSWPPTFGQGTKLEIK
notes: Full length IgG1
percent of CD8+ T cells on which 4-1BB was detected [1]: 25.3% | IFNgamma secretion by anti-CD3-treated CD8+ T cells, 1.0 ug/ml antibody, day 5, against the control group [2]: 13 fold

B2: 94/w Fab antibody (Fab, V domains shown)
VH: QVQLQQSGAEVKKPGASVKLSCKASGYTFSSYWMHWVRQAPGQGLEWIGEINPGNGHTNYNEKFKSRATMTRDTSTSTAYMELSSLRSEDSAVYYCARSFTTARAFAYWGQGTLVTVSS
VL: DIVMTQSPAFLSVTPGEKVTITCRASQTISDYLHWYQQKPDQAPKLLIKYASQSISGIPSRFSGSGSGTDFTFTISSLEAEDAATYYCQDGHSWPPTFGQGTKLEIK
notes: Fab expressed in E. coli TG1 from a pComb3H-derived vector and tested as culture supernatant; also called 941w
binding activity as fold of 94G1 (Fab antibody) [3]: 3.5 fold

B3: EU101 (antibody, human IgG1, L234A L235A)
heavy: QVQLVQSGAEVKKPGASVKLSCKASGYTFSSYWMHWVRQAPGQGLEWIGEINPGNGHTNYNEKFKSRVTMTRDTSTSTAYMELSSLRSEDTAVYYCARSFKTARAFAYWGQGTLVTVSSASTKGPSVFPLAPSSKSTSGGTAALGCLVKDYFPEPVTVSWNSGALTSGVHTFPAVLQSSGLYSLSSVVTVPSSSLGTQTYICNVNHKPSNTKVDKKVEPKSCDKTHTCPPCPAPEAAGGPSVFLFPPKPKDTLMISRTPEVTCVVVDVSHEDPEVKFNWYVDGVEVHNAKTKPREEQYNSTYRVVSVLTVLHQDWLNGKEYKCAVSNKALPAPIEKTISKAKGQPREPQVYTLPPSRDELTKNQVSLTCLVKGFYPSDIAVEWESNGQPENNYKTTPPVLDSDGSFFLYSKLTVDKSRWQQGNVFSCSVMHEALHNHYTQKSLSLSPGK
VL: DIVMTQSPAFLSVTPGEKVTITCRASQTISDYLHWYQQKPDQAPKLLIKYASQSISGIPSRFSGSGSGTDFTFTISSLEAEDAATYYCQDGHSWPPTFGQGTKLEIK
notes: Full length antibody with the 94KVT/w variable domains and a variant IgG1 constant domain; The light chain constant domain is not tied to EU101; also called exemplary humanized anti-4-1BB antibody; exemplary anti-human 4-1BB antibody (EU101)
binding result [4]: binds | binding result [5]: binds | binding result [6]: binds | binding result [7]: binds | Kd [8]: 0.0636 nM | koff [8]: 1.8e-05 s⁻¹ | binding result [9]: no binding | percent of CD8+ T cells on which 4-1BB was detected [1]: 28.3% | binding result [10]: no binding | IFNgamma secretion by anti-CD3-treated CD8+ T cells, 1.0 ug/ml antibody, day 5, against the control group [2]: 13 fold

B4: 94G1 reference humanized anti-human 4-1BB antibody (antibody, V domains shown)
VH: QVQLQQSGAEVKKPGASVKLSCKASGYTFSSYWMHWVRQAPGQGLEWIGEINPGNGHTNYNEKFKSRATMTRDTSTSTAYMELSSLRSEDSAVYYCARSFTTARAFAYWGQGTLVTVSS
VL: DIVMTQSPAFLSVTPGEKVTITCRASQTISDYLHWYQQKPDQAPKLLIKYASQSISGIPSRFSGSGSGTDFTFTISSLEAEDAATYYCQDGHSFPPTFGQGTKLEIK
Kd [8]: 0.602 nM | koff [8]: 0.000118 s⁻¹ | percent of CD8+ T cells on which 4-1BB was detected [1]: 17.9%
